The results in this text go back to a protein production outcome set (Wang et al. 2014).
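Also: failed if final PepcDB status was selected cloned or expressed and not failed if soluble or beyond.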

The nature of the data set: label from the status in PepcDB records.
For “VLAEYASRIVSAEEAVKHIKNGERVALSHAAGVPQSCVDALVQQADLFQNVEIYHMLCLGEGKYMAPEMAPHFRHITNFVGGNSRKAVEENRADFIPVFFYEVPSMIRKDILHIDVAIVQLSMPDENGYCSFGVSCDYSKPAAESAHLVIGEINRQMPYVHGDNLIHISKLDYIVMADYPIYSLAKPKIGEVEEAIGRNCAELIEDGATLQLGIGAIPDAALLFLKDKKDLGIHTEMFSDGVVELVRSGVITGKKKTLHPGKMVATFLMGSEDVYHFIDKNPDVELYPVDYVNDPRVIAQNDNMVSINSCIEIDLMGQVVSECIGSKQFSGTGGQVDYVRGAAWSKNGKSIMAIPSTAKNGTASRIVPIIAEGAAVTTLRNEVDYVVTEYGIAQLKGKSLRQRAEALIAIAHPDFREELTKHLRKRFG”, the protein production result is “not failed”.
The entry for “MSLSVTIVMIEDDLGHARLIEKNIRRAGVNNEIIAFTDGTSALNYLFGDDKSGRVSAGRAQLVLLDLNLPDMTGIDILKLVKENPHTRRSPVVILTTTDDQREIQRCYDLGANVYITKPVNYENFANAIRQLGLFFSVMQVPETEGHHHHHH” is “not failed”; for “MDETPIFKIKKLTIAENDRSEYIRYAEKNMHDSIPAEEGTLLIGSGHDDAHGEDNYEIEVFRNKGAEDLHIAGSHADDFVETVNKIATKQKVIDLHPEVITTKAQRALNSYADNFVMRLIKVEVKDADAEKFSHAVKKEMTTSMASEPGMEIMMSGTNIDNPNEWYFIEVYANDEAYDIHVKTPHYKEYIEETDGMVKSRDVKTLVRDTLATQGAIVLD” it is “not failed”; for “MATEATTKFPESDLRPIPQPPDFHPAIIVPAQNTTLKFWQLMVAGSIAGSVEHMAMFPVDTVKTHMQALRSCPIKPIGIRQAFRSIIKTDGPSALYRGIWAMGLGAGPAHAVYFSFYEVSKKFLSGGNPNNSAAHAISGVFATISSDAVFTPMDMVKQRLQIGNGTYKGVWDCIKRVTREEGFGAFYASYRTTVLMNAPFTAVHFTTYEAVKRGLREMLPEHAVGAEDEEGWLIYATAGAAAGGLAAAVTTPLDVVKTQLQCQGVCGCDRFKSSSISDVFRTIVKKDGYRGLARGWLPRMLFHAPAAAICWSTYETVKSFFQDLNGEANAA” it is “failed”.
The value for “MGGRIASLLLDELHASTTVAAGVCLGYPFHPLGKPAQLRTHHLIDLSAPCLIFQGERDAMGRQDEVEVYSMSSAVTLQWIPDGDHSFSPRKRSGRTEEQNLCLAVQHVHSFLDSV” was “failed”.
The entry for “MGTSKYSPEFRADAVALYHASPGGTYASVAKDLGVNHETLRTWVRDAEQAGRPGAVEATAMDKENRQLRARVKELELEREILRRAAKYFAAETSWLEHHHHHH” is “not failed”; for “MDRRRFLVGLLGLGLARGQGLRVEEVVGGLEVPWALAFLPDGGMLIAERPGRIRLFREGRLSTYAELSVYHRGESGLLGLALHPRFPQEPYVYAYRTVAEGGLRNQVVRLRHLGERGVLDRVVLDGIPARPHGLHSGGRIAFGPDGMLYVTTGEVYERELAQDLASLGGKILRLTPEGEPAPGNPFLGRRGARPEVYSLGHRNPQGLAWHPKTGELFSSEHGPSGEQGYGHDEVNLIVPGGNYGWPRVVGRGNDPRYRDPLYFWPQGFPPGNLAFFRGDLYVAGLRGQALLRLVLEGERGRWRVLRVETALSGFGRLREVQVGPDGALYVTTSNRDGRGQVRPGDDRVLRLL” it is “not failed”; for “MKTPTRVSFEKKIHTPPSGDRDAERSPPKKFLRGLSGKVFRKTPEFKKQQMPTFGYIEESQFTPNLGLMMSKRGNIPKPLNLSKPISPPPSLKKTAGSVASGFSKTGQLSALQSPVNITSSNKYNIKATNLTTSLLRESISDSTTMCDTLSDINLTVMDEDYRIDGDSYYEEDSPTFMISLERNIKKCNSQFSPKRYIGEKCLICEESISSTFTGEKVVESTCSHTSHYNCYLMLFETLYFQGKFPECKICGEVSKPKDKDIVPEMVSKLLTGAGAHDDGPSSNMQQQWIDLKTARSFTGEFPQFTPQEQLIRTADISCDGFRTPRLSNSNQFEAVSYLDSPFLNSPFVNKMATTDPFDLSDDEKLDCDDEIDESAAEVWFSKTGGEHVMVSVKFQEMRTSDDLGVLQDVNHVDHEELEEREKEWKKKIDQYIETNVDKDSEFGSLILFDKLMYSDDGEQWVDNNLVILFSKFLVLFDFEEMKILGKIPRDQFYQVIKFNEDVLLCSLKSTNIPEIYLRFNENCEKWLLPKWKYCLENSSLETLPLSEIVSTVKELSHVNIIGALGAPPDVISAQSHDSRLPWKRLHSDTPLKLIVCLNLSHADGELYRKRVLKSVHQILDGLNTDDLLGIVVVGRDGSGVVGPFGTFIGMINKNWDGWTTFLDNLEVVNPNVFRDEKQQYKVTLQTCERLASTSAYVDTDDHIATGYAKQILVLNGSDVVDIEHDQKLKKAFDQLSYHWRYEISQRRMTPLNASIKQFLEELHTKRYLDVTLRLPQATFEQVYLGDMAAGEQKTRLIMDEHPHSSLIEIEYFDLVKQQRIHQTLEVPNL” it is “failed”.
With “MFCGRFANFIMRDVINFIKKYNNFVIIGHKDPDFDCIGSSLALSSFLSRIGKNSILLNEGPFIRKEIVPFKDKFLSEWPNIEISEYSVIILDCSILDRIGDEFIFYVKNMPTLVIDHHMSGEKLECEGYIDPFAPSTTFLIEKLIREFGHDLTKEEAWYILVGFCTDTGFFKFISRSDPEPFEMVARLVSKGISLKEVYSYIETTKSLKSIETLKLMLNSLESYWNGKVLFTFLSSSSSGKDGGVSGVNELFYMILSNVENNEILGILKEMEDGSIIVGLRSKDSFDVGKLAEDFGGGGHKNASGFRIKQGSLEIVKNRMLAYIKDNIYLLEHHHHHH”, the protein production result is “failed”.
The value for “MKKAGILGLIITIIVLVPVGLGFNWYHSNYGTKTYYTQITTKGERKTGKDDSGKPYVYYHYSQPGYSDNGVKKELTFDSVLPRSLKMHAYLKVGYNDKRQQVINWEKVNQKDIPQAALNRIQKLEHHHHHH” was “not failed”; that for “MAGRRMKRLRAFFYVQHLLGIGHLARASRIAAALADDGFDITVVTGGPPIAGFPGQGVKSVTLPPVTSGDNGFSGLVDLQGKPIDDDFKKRRSEMLLQAFRDCRPDIVIVEAFPFGRRQMRFELLPLLETIEATSPRPLLATSVRDILQERVKPGRNEETVDLINRHFDLVMVHGDPAFTTIDKTFPLAGAITAEVTYTGLVGAPPSPAAAERFDILVSVGGGAAGRRLVSSTLAAARIANGWKWCLITGPNLPKDEFDVIACDATPGLSIFRFREDFASLLTGARLSVSQAGYNTVCDVLRAGCRSLLVPFAAGGETEQTVRALMLEELGLATVLTENDLTPDGLAQAIEQALAGPTPSAHRLDLEGARHSAQILRERYRTWSLKMGSGFGKEHDQTDDGS” was “failed”; that for “MDQFEYIITLEFGNQNQVESAYQIFKSIPKKLKAKSIGEESIKSNNQDWQDWRVCDLEIDMITDFKNQTSKEEESDLITSQYLGHGIIRLFKLSNANNTLNEKEILTIPGDDTMICILFVPTYFTVHDLLHFYIGDDIVNKQVSNFRILRNQQKGMGFNFTVLIKFRNALDAKNFKEEFNGKSFSRMDPETCHVISVKEIVFQKKLFQRPAANEDFPYLLTDPFTVKKKKELVKVELPTCPVCLERMDSETTGLVTIPCQHTFHCQCLNKWKNSRCPVCRHSSLRLSRESLLKQAGDSAHCATCGSTDNLWICLICGNVGCGRYNSKHAIKHYEETLHCFAMDIRTQRVWDYAGDNYVHRLVQNEVDGKLVEVGGSGDDDNNDIGNSDELQNVVYGNRSKNGEKSNSNKKDGELAANFLRHREYHLEYVQVLISQLESQREYYELKLQEKDQTASDSSNVESLKKSMEDLKLQFQVTQKEWQKREMAQKSKLEEDMLVIEGLQANLDHLSKKQEQLERENKALEESKQDLEEQVKDLMFYLDSQEKFKDADESVKEGTILIQQPHGAAQASKSKKKRNKNKKAGK” was “failed”.
The value for “LKASGVQAQMAKQQEQDPTNLYISNLPLSMDEQELENMLKPFGQVISTRILRDSSGTSRGVGFARMESTEKCEAVIGHFNGKFIKTPPGVSAPTEPLLCKF” was “not failed”.
With “SAQGLIEVERKFAPGPDTEERLQELGATLEHRVTFRDTYYDTSELSLMLSDHWLRQREGSGWELKCPGVTGVSGPHNEYVEVTSEAAIVAQLFELLGSGEQKPAGVAAVLGSLKLQEVASFITTRSSWKLALSGAHGQEPQLTIDLDSADFGYAVGEVEAMVHEKAEVPAALEKIITVSSMLGVPAQEEAPAKLMVYLQRFRPLDYQRLLEAASSGEATGDSAS”, the protein production result is given as “not failed”.
The entry for “MNRKLRRANLKASEPTPHETGNVINYMRQGRYAEAAHLAKGLTERFPDHGFGWKILGICTLLLGQNGDALPLFLKAAGLLPDDPDIHCNIGIIYYELNQLNEAEYYCRYALKLRPNDAIAHNNLGNILSSLGRLDEAEACFRRAIENNPDLAQAHYNLGSALQALGRLEEAESCYRRATAIRPTYEEAYASLGNVLKEMGRLDEALESWKLSLAHQEDWTNALRRLTNPLLMDGDLTRGPEYPAADAAEGQPRQLSSHPAAASVESLDRKYRVPSHGHDGSAEAGAVAGRDENAPRPLRIVLVYPPLWQIPSADLAVPEGMPFGPPATAGGPVAISRELKTITQGVLSIAAQAKKAGHDVRVYNLFNAPWADIVALIAGTGADVYGVSAYNSNRRGMGALCALIRQYHPHAHITVGGPFATTLPLETLRYYRAIDTVVVGEGEETFMELLDHIRSHRPAVGIPGTAWRNGDEVALGPVRPRIGDLDTLASHFDYYSSNIVMTSRGCPSKCSFCGNPVLWGRKIRFYSTDYCIDMFRKALARLPVPYLMIADDTFTANQQRTLNMCDAIIGNKLDFLWSCSTRVDAMEDKVLHRMRRAGCQEIMIGVESGSPEILERIHKGITPEMVLTVTRAAKKYGMLVHYYMMVINRGETPDTLQASIDLIKAGRPNSYDLTPLMFLPGTEDYGHLCEQQGLTSDIFFRNDFMDISVERKRKKDLDTVMQHLYCSIGTIGGYEYTVAEREAVVEHLPDVPTVHVELANAYLRAGQLDKATAALTRAEELGFPIGNIILNQHACIALARNQIDTSLDFLERACRSFPDVTVKGNYDKLAAWIDSRTSGQVKPCLLCDSVRAQDFVFRADETAP” is “failed”.
Regarding “MTKHFLPRRTRKRRPEPLVKVRIDPPKLPKIRLLPRRAPRPRRPEPLVKVRIDPPRIRLPRIRRPRLTPFRERNPVVIGAVGLTFLALLTVAAFNADSLPLIGGGETYSAAFSEAGGLKPGDEVRIAGVKVGKVKDVDLDGDHVKVTFKIKGDPGFGTETGASIRVKTILGAKYLALRPKGPGQLKPGSEIPLKRTVPAYDVVQAFSDLTTTTEKVDTDQLAKALDTISTTFQDSPAEVRASIKGLSKISRTVASRDKALGELLDHANGVTGVLAEHSEDFTALVKDGGKLFKEISKRRKAIHKLLKSSAALGIELSGLVEDNDKEIGPALKGLNRVVQMLERNQSSLDRSVKLLAPYVRVFTNALGNGRWFDSYVQNLVAAPVVPRTGGAQ”, the protein production result was “failed”.
With “AIAAELGLNEHHQNEVINYMRFARSKRGLRLKTVDSCFQDLKESRLVEDTFTIDEVSEVLNGLQAVVHSEVESELINTAYTNVLLLRQLFAQAEKWYLKLQTDISELENQELLEQVAEFEKAEITSSNKKPILDVTKPKLAPLNEGGTAELLNEEILRLQEENEKLKSRLKTIEIQATNALDEKSKLEKALQDLQLDQGNQKDFIKAQDLSNLENTVAALKSEFQKTLNDKTENQKSLEENLATAKHDLLRVREQLHMAEKELEKKFQQTAAYRNMKEILTKKNDQIKDLRKRLAQYEPED”, the protein production result is recorded as “failed”.
For the sequence “MQMNNHIRLRKAEGKWVIRTDSAVLGETLNAIELTEGSRDPVIYFPREDVAMVMFDKSEKVTACPLKGEASYYSIVGASGTLKDAAWSYESPKEGLEAIAGYLAFAPDCTKVGQY”, the protein production result is recorded as “not failed”.
